Measured values published in publication PMC6395948 (Molecular Cell, 2019).

Key:
McbD = target: T1, McbD (Escherichia coli, UniProt P23186 1-396); assay: crystal structure
T1 sequence: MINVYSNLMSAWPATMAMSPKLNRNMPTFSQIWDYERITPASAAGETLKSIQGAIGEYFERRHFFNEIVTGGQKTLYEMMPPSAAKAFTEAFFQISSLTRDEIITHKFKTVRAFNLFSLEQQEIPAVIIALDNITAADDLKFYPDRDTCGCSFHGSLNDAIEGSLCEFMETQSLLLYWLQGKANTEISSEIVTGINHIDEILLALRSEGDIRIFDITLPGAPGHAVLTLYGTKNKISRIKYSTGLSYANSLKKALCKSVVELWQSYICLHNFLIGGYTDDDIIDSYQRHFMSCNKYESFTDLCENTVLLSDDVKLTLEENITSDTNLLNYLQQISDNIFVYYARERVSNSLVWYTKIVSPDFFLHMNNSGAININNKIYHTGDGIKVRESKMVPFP

crystal structure = target: the molecule itself; assay: crystal structure

B1: McbB (natural protein, Escherichia coli)
chain: MVLPDIKKGKDMINILPFEIISRNTKTLLITYISSVDITHEGMKKVLESLRSKQGIISEYLLDKLLDESLIDKDKGKEFLITTGVINKTKTSPLWVNSVIISDVPHLFSNAREQWKCDGVFVSHIIDIKDNNINVSDSTLIWLHLENYHSDIVKRIYSKFESNPGVAFIQSYYLKESFRIDGVYSPDLGTPCHFCHIERWLSREEKSFRRNEMSWANLLQLLKKYQMTLPALALGESERGFSYHLIKRRLQELTGTSLVKSHVDNFMSSVSADLITCILCKEPVIHWQACSCLER
binding result (McbD): binds
stoichiometry N (crystal structure): 2
